# IntAct's records for PubMed 24316379
# B1: Interleukin-1 receptor-associated kinase 4 (Homo sapiens), Q9NWZ3 (parent)
# chain: MNKPITPSTYVRCLNVGLIRKLSDFIDPQEGWKKLAVAIKKPSGDDRYNQFHIRRFEALLQTGKSPTSELLFDWGTTNCTVGDLVDLLIQNEFFAPASLLLPDAVPKTANTLPSKEAITVQQKQMPFCDKDRTLMTPVQNLEQSYMPPDSSSPENKSLEVSDTRFHSFSFYELKNVTNNFDERPISVGGNKMGEGGFGVVYKGYVNNTTVAVKKLAAMVDITTEELKQQFDQEIKVMAKCQHENLVELLGFSSDGDDLCLVYVYMPNGSLLDRLSCLDGTPPLSWHMRCKIAQGAANGINFLHENHHIHRDIKSANILLDEAFTAKISDFGLARASEKFAQTVMTSRIVGTTAYMAPEALRGEITPKSDIYSFGVVLLEIITGLPAVDEHREPQLLLDIKEEIEDEEKTIEDYIDKKMNDADSTSVEAMYSVASQCLHEKKNKRPDIKKVQQLLQEMTAS
# Variants of: B1
# Conditions: with MYD88, Q99836-1
# Chain of MYD88, Q99836-1 (Q99836 whole entry): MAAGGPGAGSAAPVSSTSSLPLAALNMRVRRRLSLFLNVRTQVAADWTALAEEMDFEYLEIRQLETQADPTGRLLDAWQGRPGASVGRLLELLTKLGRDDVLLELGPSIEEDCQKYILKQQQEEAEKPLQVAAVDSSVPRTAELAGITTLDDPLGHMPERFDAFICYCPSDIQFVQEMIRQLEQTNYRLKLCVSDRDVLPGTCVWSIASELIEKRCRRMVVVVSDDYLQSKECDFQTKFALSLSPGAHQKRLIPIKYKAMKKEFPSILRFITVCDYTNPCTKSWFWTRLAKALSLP
row,Variant,effect of a mutation on the interaction
1,R20W,decreasing interaction strength
2,R12C,decreasing interaction strength

# Variants of: B1
# Conditions: with MYD88, Q99836-1
# Remark: another data set of the same source
row,Variant,effect of a mutation on the interaction
1,R12C,disrupting interaction strength
